Reference: the nanobody polyreactivity screen of Harvey et al. (2022)

Experiment: yeast display, Sf9 membrane polyspecificity reagent, FACS + sequencing; frameworks hold sequencing errors
How it was run: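 Using colony PCR, genes from sorted yeast display clones were amplified, then sequenced on MiSeq at 2 × 250 and filtered by CDR length. The clones had been stained with 10% biotinylated, detergent-solubilized Sf9 membrane reagent for 1 hour at 4 °C and sorted by FACS into low and high (top ~1%) gates on anti-HA and streptavidin fluorescence. Polyreactivity labels come from the gate of origin.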

Sequence | polyreactivity (PSR sort gate)
QVQLVESGGGLVQAGGSLRLSCAASGGTFYGYAMGWYRQAPGKERELVAAINYRGGRTYYADSVKGRFTISRDNAKNTVYLQMNSLKPEDTAVYDCAATSDRLDGYDYWGQGTQVTVSS | high polyreactivity
QVQLVESGGGLVQAGGSLRLSCAASGSIFAYYAMGWYRQAPGKERELVAGIRISGGRTYYADSVKGRFTISRDTAKNTVYLQMNSLKPEDTAVYYCNARWRGFRTGAGDYWGQGTQVTVSS | high polyreactivity
QVQLLESGGGLVQAGGSLRLSCAASGFTFSRYAMGWYRQAPGKERELVAAITSSGGSTYYADSVKGRFTISRDNAKNTVYLQMLSLKPEDSAVYYCAAGKYTASNGYGYWGQGTQVTVSS | high polyreactivity
QVQLVGSGGGLVQAGGSLRLSCAASGSTFGYYAMGWYRQAPGKERELVAAITKSGGSTFYADSVKGRFTISRDNAKNTVYLQMNSLKPEDTAVYYCAARYKGQYYRQGRHDFWGQGTQVTVSS | high polyreactivity
QVQLVESGGGLVQAGGSLRLSCAASGRIFQYYAAMGWYRQAPGKERELVASIRATGGSTYYADSVKGRFTISRDNAKNTVYLQMNSLKPEDTAVYYCAARFAAKSLPAYDYWGQGTQVTVSS | low polyreactivity
KVQLVESGGGLVQAGGSLRLSCAPSGRTFRSNGMGWYIQAPGKERELVATISEGGGSTYYADSVKGRFTISRDNAKNTVYLEMISLKPEDSAVYFCAADKWYVLHYLDMNYWGQGTQVTVSS | high polyreactivity
QVKLVESGGGLVQAGCSLRLTCAASGSTSDMKAMGWYRQAPGKERELVAAISYSGGSTYYADSVKGRFTMSRDNAKNTVYLQMNSLKPEDTAVYYCAKQVADRYDYWGQGTEVTVSS | low polyreactivity
QVQLVESGGGLVQAGGSLRLSCAASGFIFVRNAMGLYRQAPGKEREFVAAITRSGGSTYYADSVKGRFTISRDNAKNTVYLQMNSLKPEDTAVYYCAARIHGSWSFDYWGQGTQVTVSS | low polyreactivity
QVHLVESGGGLVQAGGSLRLSCAASGFTFSTYAMGVSRQAPGKEREWVAAISSGGTTNYADSEKGRFTISRDNAMNTVYLQMNCLKPEDTAVYYCATGYGRWTAYSTSYDYWGQGTQVTVSS | low polyreactivity
QVQLVESGGGLVQAGGSLRLSCAASGRTFATNARGWYRQAPGKERELVAGINGSGSTNYADSVKGRFTISRDNAKNTVYLQMNSLKPEDTAVYYCAAYVGLYYRLHYYYWGQGTQVTVSS | low polyreactivity
QVQLVESGGGLVQAGGSLRLSCAASGSTFSTYAMGWYRQAPGKERELVAAITRRGGRTYYADSVKGRFTISRDNAKNTVYLQMNSLKPEDTAVYYCAKTSPVSDGYYWGQGTQVTVSS | high polyreactivity
QVQLVESGGGLVQAGGSLRLSCAASGFIFRYYAMGWYRQAPGKERELVAAITSRGSSTYYADSVKGRFTISRDNAKNTVYLQMNSLKPDDTAVYYCAARLRGDYVRYDYWGQGTQVTVSS | high polyreactivity
QVQLVESGGGLVQAGGSLRLSCAASGSIFSAYAMGWYRQAPGKERELVAGISKRGGSTYYADSVKGRFTISRDNAKNTVYLQMNSLKPEDTAVYYCNAARYTVVTKLFDYWGQGTQVTVSS | high polyreactivity
QVQLVESGGGLVQAGGSLRLSCAASGSIFWSYAMGWYRQAPGKERELVAAIRRGGSTNYADSVKGRFTISRDNAKNTVYLQMNSLKPEDTAVYYCAKSRGVRREPPKYATTYNYWGQGTQVTVSS | low polyreactivity
QVQHVESGGGLVQAGGSLRLSCAASGRISQIYAMGWYRQAPGKERELVARITSTDSTYYADSVKGRFTISRDNAKNTVYLQMNSLKPEDTAVYYCAASWWSPYDYWGQGTQVTVSS | low polyreactivity
QVQLVESGGGLVQAGGSLRLSCAASGYTFRHYAMGWYRQAPGKERELVAAISRSGGRTYYADSVKGRFTISRDNAKNTVYLHMNSLKPEDTAVYYCAADRVFGSSYLSGFDYWGQGTQGTVSS | low polyreactivity
QVQLVESGGGLVQAGGSLRLSCAASGYTIYSYAMGWYRQAPGKERELVAAITESGARTYYADSVKGRFTISRDNAKNTVYLLMNSLKPEDSAVYYCAADYAWPLRVTGDYWGQGTQVTVSS | low polyreactivity
QVQLVESGGGLVQAGGILRLSCAASGLIFNYYAMGWYRQAPGKERELVADITRGGSTNYADSVKGRFTISRDNANFTVYVQMNSMKPEDSAVYYCAARVRGWWYRYDYWGHGTQVTVSS | high polyreactivity
QVQLVESGGGLVQAGGSLRLSCAASGFIFRRYVMGWYRQAPGKERELVAAISNGGGRTYYADSVKGRFTISRDNAKNTVYLQMNSLKPEDTAVYYCAAYPRGPLAPDYDYWGQGTQVTVSS | high polyreactivity
QVQLVESGGGLVQAGGSLRLSCAASGSTFINYAMGWYRQAPGKERELVAVITSDDGSTYYADSVKGRFTISRDNAKNTVYLQMNSLKPEDTAVYYCAADYYDQRYRPGPWYDYWGQGTQVTVSS | low polyreactivity
QVQLVESGGGLVQAGGSLRLSCAASGSIYVKGWYRQAPGKERELVAAISTNGGRTYYADSVKGRFTISRDNAKITVYLQLTSLKPEDTAVYYCAVRTTPKTRRFYYWGQGTQVTVSS | high polyreactivity
QVQLVESGGGLVQAGGSLRLSCAASGLTFGSYAMGWYRQAPGKERELVAAISRSGITYYADSVKGRFTISRDNAKNTVYLQMNSLKPEDTAVYYWAVTQNSKSTKIRPDQGDYGGQGTQVTVSS | high polyreactivity

Sequence | polyreactivity (PSR sort gate)
QVQLVESGGGLVQAGGSLRLSCAASGRTYVVYAMGWYRQAPGKERELVARFRWRDVSTYYADSVKGRFTISRDNAKNTVYLQMNSLKPEDSAVYYCAARSYTGGGRLYYWGQGTQVTVSS | high polyreactivity
QVQLVESGGGLVQAGGSLRLSCAASGRTSVLYAMGWYRQAPGKEREFVAAITWNSGSTYYADSVKGRFTISRDNAKNTVYLQMNSLKPEDTAVYYCNADYYFSSYRSTYDYWGQGTQVTVSS | low polyreactivity
QVQLVESGGGLFQAGGSLRLSCAASGRTFGIYAMRWYRQAPGKERELVATISWRGGSTYYADSVKGRFTISRDNAKNTVDLQMNSLKPEDTAVYYCAAVLTALSPDFEYEYWGQGTQVTVSS | low polyreactivity
QVQHVESGGGLVQAVGSLRLSCAASGIIFPRTAMGWYGQAPGKERELVAGISRSGGSTSYADSVKGRFTISRDNAKNTVYLQMNSRKPEDTAVYYCATRGHPFKKSYGSWGQGTQVTVSS | high polyreactivity
QVQLVESGGGLVQAGGSLRLSCAASGRIFGRYAMGWYRQAPGNERELVAAISSTGGRTYYADSVKGRFTISRDNAKNTVYLQMTSLKPEDTAVYYCAATYVHYPSMGYDYWGQGTQVTVSS | high polyreactivity
QVQLVESGGGLVQAGGSLRLSCAATGSTFRNNAMGWSRQAPGKERELVAAISRGGGSTYYADSVKGRFTISRDNAKNTVYLQMNSLKPEVTAVYYCARRPTGIYDYWGQGTQVTLSS | high polyreactivity
QVQLVESGGGLVQAGGSLRLSCAASGFTFHWNAMGWYRPAPGKERELVAVITSGGSTNYADSVKGRFTISRDNAKNTVYLQMNSLKPEDTAVYYCAKEDGYSQLKTTFDEPGYGSWGQGTQVTVSS | low polyreactivity
QVQLVESGGGLVQAGGSLRLSCAASGRTFWWYAMGWYRQAPGKERELVAAITQSGGSTFYADSVKGRFTISRDNAKNTVYLQMNSLKPEDTAVYYWGQGTQVTVSS | low polyreactivity
QVQLVESGGGLVQAGGSLRLSCAASGSTFYSYVMGWYRQAPGKERELVAAITYSGGRTYYADSVKGRFTISRDNAKNTVYLQMNSLKPEDTAVYYCAKRVFNYQRYDYWGQGTQVTVSS | high polyreactivity
QVQLVESGGGLVQAGGSLRISCAASGRTFCNNAMGWYRQAPGKERELVAAITSTGSRTYYADSVKGRFTISRDNAKNTVYLQMNSLKPEDTAVYYCNRVSHLDYYWGQGTQVTVSS | high polyreactivity
QVQLVESGGGLVQAGGSLRLSCAASGSTFAIDAMGWDRQAPGQDRELVASISGGSTNYADSVKGRVTISRDKAKNTVDLQRNSLKPEDTAVYYCAARGALQHWYRYDYWGQGTQGTVSS | low polyreactivity
QVQLVESGGGLVQAGGSLRLSCAASGSIFRYNAMGRYRQAPGKERELVAAITSNGGSTYYADSVKGRFTISRDNAKNTVYLQMNCQKPEDTAVYYCNAVYTFTRRYGYWGQGTQVTVSS | high polyreactivity
QVQLVESGGGLVQAGGSIRLRCAASGGIFSVYAMGWYIQAPGKERELVASISLSGGSTSYADSVKGRFTISRDNAKNTVYLQMNSLKPEDTAVYYCNTDFGQAHTLSWYEDMDYWGQGTQVTVSS | low polyreactivity
QFQLVESGGGLVQAGGSLRLSCAASGYIFLRNAMGCYRQAHGKERELVAAIRLTGGSTYYADSVKGRFTISRDNAKNTVYLQMNSLKPEDTAVYYCAKRSYTGYEYWGQGTQVTVSS | low polyreactivity
QVQLVESGGGLVQAGGSLRLSCAASGGTLASYAMGRYRQATGKERELVAAITRGGGSTHYADSVKGRFTISRDNAKNTVYLQMNSLKPADTAVYYCNARVRPGYGYWGQGTQVTVSS | high polyreactivity
QVQLVESGGGLVQAGGSLRLSCAASGRTFVRYAMGWYRQAPGKERELVARITSRGTSTYYADSVKGRFTISRDNAKNTVYLQMNSLKPEDTAFYYCNKVRTFRDKSRYDYWGQGTQVTVSS | low polyreactivity
QVQLVESGGGLVQAGGSLSLSCAASGSNFYYNVMGWYRQAPGKERELVAAISQSGVRTYYADSVKGRFTISRDNAKNTVYLQMNSLKPEDTAVYYCAAKARRLYASSYDYWGQGTQVTVSS | high polyreactivity
QVQLVESRGGLVQAGGSLRLSCAASGSTFRTYAMGWYRQAPGKERELVADITWRGGSTYYADSVKGRFTISRDNAKNTVYLQMNSLKPEDTAVYYCATDRGPEVVLYDYWGQGTQVTVSS | low polyreactivity
QVQLVESGGGLVQAGGSLRLSCAASGSIFKKYAMGWYRQAPGKERELVAAITRGTYYADSVKGRFTISRDNAKNTVYLQMNSVKPVDTAVYYCNREYWGRGYYRVRGEYVYWGQGTQVTVSS | low polyreactivity
QVQLVESGGGLVQAGGSLRVSCAASGSIFSYYAMGWYRQAPGKEREFVAAISWSGGSTYYADSVKGRFTISRDNAKNTVYLQMNSLKPEDTAVYYCAAELSLSWLVPDVPYYYWGQGTQVTVSS | low polyreactivity
QVQLVESGGGLVQAGGSLRLSCAASGRNFYYAMGWYRQEPGKERELVASITWSGGSTYYADSVKGRFTISRDNAKNTVYLQMNSLKPEDTAVYYCNADDLYTWYVEYNYWGQGTQVTVSS | low polyreactivity
